# B1: hOAT (human ornithine δ-aminotransferase) (Homo sapiens; R217A) (protein)
# chain: TSVATKKTVQGPPTSDDIFEREYKYGAHNYHPLPVALERGKGIYLWDVEGRKYFDFLSSYSAVNQGHCHPKIVNALKSQVDKLTLTSRAFYNNVLGEYEEYITKLFNYHKVLPMNTGVEAGETACKLARKWGYTVKGIQKYKAKIVFAAGNFWGRTLSAISSSTDPTSYDGFGPFMPGFDIIPYNDLPALEAALQDPNVAAFMVEPIQGEAGVVVPDPGYLMGVRELCTRHQVLFIADEIQTGLARTGRWLAVDYENVRPDIVLLGKALSGGLYPVSAVLCDDDIMLTIKPGEHGSTYGGNPLGCRVAIAALEVLEEENLAENADKLGIILRNELMKLPSDVVTAVRGKGLLNAIVIKETKDWDAWKVCLRLRDNGLLAKPTHGDIIRFAPPLVIKEDELRESIEIINKTILSF
# notes: untagged, pET43a, E. coli BL21(DE3)pLysS; DEAE and Superdex 200; tetramer in equilibrium with dimer, dimer is the functional unit
# How the values were obtained:
# [1] = substrate: O=C(O)CCC(=O)C(=O)O; experiment: purified protein; assay type: biochemical, Homo sapiens; conditions: co-substrate L-Orn, 60 nM enzyme, 50 mM Hepes, pH 8.0, 150 mM NaCl, 100 μM PLP, 25 °C
# [2] = substrate: NCCC[C@H](N)C(=O)O; experiment: purified protein; conditions: co-substrate α-KG, 60 nM enzyme, 50 mM Hepes, pH 8.0, 150 mM NaCl, 100 μM PLP, 25 °C
protein,measurement,setting,value
B1,Km,[1],2.4 ± 0.1 mM
same,kcat,[1],38.1 ± 0.3 s⁻¹
same,Km,[2],5.1 ± 0.3 mM
same,kcat,[2],38.4 ± 0.7 s⁻¹
